Reference: PMC11068555

Experiments:
Experiment in all cases: native gel or EMSA
[1] = target: Btky72 S Foldon his (sarbecovirus BtKY72 (clade 3) | bacteriophage T4)
[2] = target: Khosta-2 S Foldon his (prefusion stabilized spike ectodomain) (sarbecovirus Khosta-2 (clade 3) | bacteriophage T4)
[3] = target: PRD-0038 S Foldon his (prefusion stabilized spike ectodomain) (sarbecovirus PRD-0038 (clade 3) | bacteriophage T4)
[4] = target: Pang17 S Foldon his (prefusion stabilized spike ectodomain) (sarbecovirus Pang17 (clade 1b) | bacteriophage T4)
[5] = target: Rf1 S Foldon his (prefusion stabilized spike ectodomain) (sarbecovirus Rf1 (clade 2) | bacteriophage T4)
[6] = target: Rs4081 S Foldon his (prefusion stabilized spike ectodomain) (sarbecovirus Rs4081 (clade 2) | bacteriophage T4)
[7] = target: RshSTT200 S Foldon his (prefusion stabilized spike ectodomain) (sarbecovirus RshSTT200 (clade 1b) | bacteriophage T4)
[8] = target: SARS-CoV S Foldon his (prefusion stabilized spike ectodomain) (SARS-CoV (clade 1a) | bacteriophage T4)

Btky72 S Foldon his (domain or fragment)
stoichiometry N [1]: 3

Khosta-2 S Foldon his (prefusion stabilized spike ectodomain) (domain or fragment)
stoichiometry N [2]: 3

PRD-0038 S Foldon his (prefusion stabilized spike ectodomain) (domain or fragment)
stoichiometry N [3]: 3

Pang17 S Foldon his (prefusion stabilized spike ectodomain) (domain or fragment)
stoichiometry N [4]: 3

Rf1 S Foldon his (prefusion stabilized spike ectodomain) (domain or fragment)
stoichiometry N [5]: 3

Rs4081 S Foldon his (prefusion stabilized spike ectodomain) (domain or fragment)
stoichiometry N [6]: 3

RshSTT200 S Foldon his (prefusion stabilized spike ectodomain) (domain or fragment)
stoichiometry N [7]: 3

SARS-CoV S Foldon his (prefusion stabilized spike ectodomain) (domain or fragment)
stoichiometry N [8]: 3
